Results as given in paper PMC4175327, “Distinguishing Closely Related Amyloid Precursors Using an RNA Aptamer*”.

Tests used:
[1] = target: T1, human beta2-microglobulin (hβ2m), monomer (human, UniProt P61769 21-119); test: intrinsic Trp fluorescence quenching; EC50; Hill slope 0.99 ± 0.06; 1 uM protein; 50 mM MES, 120 mM NaCl, pH 6.2; fluorescence and NMR at 25 °C (NMR plus 0.02% azide, 0.1 mM EDTA, 10% D2O); SPR temperature not stated; conditions: tags: biotin (N terminus, Lys-7 and/or Lys-92), immobilized, for SPR; hairpin with bulges, U tetraloop
T1 sequence (P61769 21-119): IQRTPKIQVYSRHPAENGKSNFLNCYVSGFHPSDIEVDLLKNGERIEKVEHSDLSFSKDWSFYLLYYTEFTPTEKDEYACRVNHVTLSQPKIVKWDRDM

[2] = target: T1, human beta2-microglobulin (hβ2m), …; test: intrinsic Trp fluorescence quenching; 1 uM protein; 50 mM MES, 120 mM NaCl, pH 6.2; fluorescence and NMR at 25 °C (NMR plus 0.02% azide, 0.1 mM EDTA, 10% D2O); SPR temperature not stated; conditions: tags: biotin (N terminus, Lys-7 and/or Lys-92), immobilized, for SPR; hairpin with bulges, U tetraloop

Binder | apparent K (half saturation) [1] [nM] | binding result [2]
GGGAAUUCUGAGCUACUCCCUUUUGGGCCCGGCUAUGAUUCCCG (XNA, 2'-fluoro C and U (3'-terminal G is ribo)) [2'F B6min] | 223 ± 10 | 
GGGAAUUCUGAGCUACUCCCUUUUGGGCCCGGCUAUGAUUCCCG (structured_RNA, none (2'OH)) [2'OH B6min] |  | no binding
